Assay [1] concerns the target T1, PCSK9 V domain (450-692 of SEQ ID NO: 3) (human, UniProt Q8NBP7 450-692).
T1 construct: also called v-domain PCSK9
T1 chain: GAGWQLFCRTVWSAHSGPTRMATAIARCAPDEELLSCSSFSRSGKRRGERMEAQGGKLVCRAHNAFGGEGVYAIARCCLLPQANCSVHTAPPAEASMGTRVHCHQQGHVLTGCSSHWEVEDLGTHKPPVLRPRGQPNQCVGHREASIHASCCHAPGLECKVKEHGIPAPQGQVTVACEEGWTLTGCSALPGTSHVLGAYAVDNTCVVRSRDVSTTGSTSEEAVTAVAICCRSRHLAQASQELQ
Nature of the assay: domain binding ELISA (coated antibody captures the PCSK9 form; OD650). (ELISA stands for enzyme-linked immunosorbent assay.)

For assay [2], the target named is T2, PCSK9 ProCat (31-449 of SEQ ID NO: 3) (human, UniProt Q8NBP7 27-449).
T2 construct: From PCSK9 449TEV after rTEV cleavage: GAMG-PCSK9 (31-449)-ENLYFQ; Written as one chain; autocatalysis between 152 and 153 splits pro-domain and catalytic domain; also called procat PCSK9; PCSK9 31-449
The assay is described as above.

The target in assay [3] is T3, human PCSK9 (proprotein convertase subtilisin kexin type 9) (human, UniProt Q8NBP7 31-692).
T3 construct: Used untagged, biotinylated, V5/His- or His-tagged depending on the assay; also called hPCSK9; huPCSK9
The assay can be described thus: BIAcore solution equilibrium, pH 5.5. (In general: In SPR one partner is held on a chip, and binding of the other changes the refractive index at the surface.)

Assay [4] addresses T3, human PCSK9 (proprotein convertase …). The assay can be described thus: BIAcore solution equilibrium, pH 7.4.
Assay [5] shares this target. Nature of the assay: BIAcore solution equilibrium, pH 6.0.
In assay [6] the target is T1, PCSK9 V domain (450-692 of SEQ ID NO: 3). Nature of the assay: native PAGE gel shift. In general terms: A gel shift assay detects complexes by their altered migration in electrophoresis.
Assay [7] concerns the target T3, human PCSK9 (proprotein convertase …). Nature of the assay: BIAcore kinetic assay 2, antibody captured, pH 5.5.
Assay [8] deals with T1, PCSK9 V domain (450-692 of SEQ ID NO: 3). Nature of the assay: domain binding ELISA (coated antibody captures the PCSK9 form; OD650).
Assay [9] has as its target T2, PCSK9 ProCat (31-449 of SEQ ID NO: 3). The description is as above. This is another data set of the same source.
Assay [10] concerns the target T3, human PCSK9 (proprotein convertase …). The assay can be described thus: BIAcore kinetic assay 2, antibody captured, pH 7.4.
Assay [11] shares this target. Nature of the assay: BIAcore kinetic assay 2, antibody captured, pH 6.0.
The target is the same in assay [12]. The assay can be described thus: BIAcore kinetic assay 2.
Another assay has as its target T4, 16F12, anti-PCSK9 huIgG4.
T4 construct: from hybridoma; also called 16F12 IgG4; 16F12.1
Nature of the assay: KinExA solution equilibrium, % free 16F12 (100 pM) against [mPCSK9].

The target in another assay is T5, 31H4, anti-PCSK9 huIgG4.
T5 construct: from hybridoma
Nature of the assay: KinExA solution equilibrium, % free 31H4.1 (100 pM) against [mPCSK9].

The target in assay [13] is T3, human PCSK9 (proprotein convertase …). Nature of the assay: BIAcore kinetic assay 1, His-tagged huPCSK9 captured, pH 7.4.
The target is the same in assay [14]. Nature of the assay: BIAcore kinetic assay 1, His-tagged huPCSK9 captured, pH 6.0.
For assay [15] the target is unchanged. Nature of the assay: BIAcore kinetic assay 1, His-tagged huPCSK9 captured, pH 5.5.

Like-named read-outs stand apart in the source and are kept apart here.

One may read the Kd as the concentration at which binding is half-saturated. What is called koff is a measure of how fast the partners let go of each other. Lower therefore signals a long-lived complex.

T4 sequence (VH, as listed by the source, chain 1 of 2): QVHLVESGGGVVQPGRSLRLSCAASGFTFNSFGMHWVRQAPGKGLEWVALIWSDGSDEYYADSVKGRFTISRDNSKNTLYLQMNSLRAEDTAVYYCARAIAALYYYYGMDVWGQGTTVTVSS
T4 sequence (V domain, as listed by the source, chain 2 of 2): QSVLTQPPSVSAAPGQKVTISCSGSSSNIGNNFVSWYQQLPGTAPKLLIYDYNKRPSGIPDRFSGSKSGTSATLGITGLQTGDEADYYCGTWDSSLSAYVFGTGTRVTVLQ

B1: 23B5 (antibody, V domains shown)
VH: EVQLLESGGGLVQPGGSLRLSCAASGFTFSSYAMNWVRQAPGKGLEWVSTISGSGDNTYYADSVKGRFTISRDNSKNTLYLQMNSLRAEDTAVYYCAKKFVLMVYAMLDYWGQGTLVTVSS
VL: DILMTQSPSSLSASVGDRVTITCRASQSISSYLNWYQQKPGKAPKVLIYAASSLQSGVPSRFSGSGSGTDFTLTINSLQPEDFATYYCQQSYSSPITFGQGTRLEIK
As for B1, the binding result in [1] was “no binding”; in [2], “binds”. Moreover, the Kd in assay [3] amounted to 0.28 nM; in assay [4], 0.1 nM; in assay [5] it was 0.2 nM.

B2: 25G4 (antibody, V domains shown)
VH: EVQLLESGGGLVQPGGSLRLSCAASGFTFSSYAMNWVRQAPGKGLEWVSTISGSGGNTYYADSVKGRFTISRDNSKNTLYLQMNSLRAEDTAVYYCAKKFVLMVYAMLDYWGQGTLVTVSS
VL: DIQMTQSPSSLSASVGDRVTITCRASQSISIYLNWYQQKPGKAPYLLIYAAASLQSGVPSRFSGSGSGTDFTLTISSLQPEDFATYYCQQSYSAPITFGQGTRLEIK
For the molecule B2, the binding result in assay [1] is “no binding”; in [2], “binds”.

B3: 21B12 (antibody, V domains shown)
VH: QVQLVQSGAEVKKPGASVKVSCKASGYTLTSYGISWVRQAPGQGLEWMGWVSFYNGNTNYAQKLQGRGTMTTDPSTSTAYMELRSLRSDDTAVYYCARGYGMDVWGQGTTVTVSS
VL: QSALTQPASVSGSPGQSITISCTGTSSDVGGYNSVSWYQQHPGKAPKLMIYEVSNRPSGVSNRFSGSKSGNTASLTISGLQAEDEADYYCNSYTSTSMVFGGGTKLTVL
notes: lambda light chain; also called ABP 21B12; Ab 21B12
As to B3, the binding result in assay [6] is listed as “no binding”.

B4: 26H5 (antibody, V domains shown)
VH: QVQLVQSGAEVKKPGASVKVSCKASGYTLTSYGISWVRQAPGQGLEWMGWISFYNGNTNYAQKVQGRVTMTTDTSTSTVYMELRSLRSDDTAVYYCARGYGMDVWGQGTTVTVSS
VL: QSALTQPASVSGSPGQSITISCTGTSSDVGGYNSVSWYQQHPGKPPKLMIYEVSNRPSGVSIRFSGSKSGNTASLTISGLQAEDEADYFCSSYTSTSMVFGGGTKLTVL
notes: also called 26H5-7.4
In the case of B4, the koff in assay [7] came out at 0.00026 s⁻¹; in assay [10], 0.00056 s⁻¹; in [11], 0.00047 s⁻¹. The binding result in [8] is “no binding”; in assay [9], “binds”. The “off rate ratio pH 5.5/pH 7.4” value in [12] was 0.5. Also, in assay [12], the “off rate ratio pH 6.0/pH 7.4” value worked out at 0.8.

B5: 27H5 (antibody, V domains shown)
VH: QVQLVQSGAEVKRPGASVKVSCKASGYTLTSYGISWVRQAPGQGLEWMGWISVYNGNTNYAQKVQGRVTMTTDTSTSTVYMELRSLSSDDTAVYYCARGYGMDVWGQGTTVTVSS
VL: QSALTQPASVSGSPGQSITISCTGTSSDVGGYNSVSWYQQHPGKPPKLMIYEVSNRPSGVSIRFSGSKSGNTASLTISGLQAEDEADYFCSSYTSTSMVFGGGTKLTVL
Turning to B5, the figures for the binding result in assay [1] and in assay [2] were “no binding” and “binds”, respectively.

B6: 13H1 (antibody, V domains shown)
VH: QVQLQQSGPGLVKPSQTLSLTCAISGDSVSSNSAAWNWIRQSPSRGLEWLGRTYYRSKWYKNYSVSVKSRITINPDTSKNQFSLQLNSVTPGDTAVYYCARGGPTAAFDYWGQGTLVTVSS
VL: LSALTQPASVSGSPGQSITISCTGTSSDVGNYNLVSWYQQYSGKAPKLMIYEVSKRPSGVSNRFSGSKSGNTASLTISGLQAEDEADYYCCSYAGSSTLVFGGGTKLTVL
Turning to B6, the values for the binding result in assay [1] and in assay [2] were “no binding” and “binds”, respectively.

B7: mouse PCSK9 (enzyme, UniProt Q80W65 35-694, looked up, not shown: small tags and cut ends)
chain: QDEDGDYEELMLALPSQEDGLADEAAHVATATFRRCSKEAWRLPGTYIVVLMEETQRLQIEQTAHRLQTRAARRGYVIKVLHIFYDLFPGFLVKMSSDLLGLALKLPHVEYIEEDSFVFAQSIPWNLERIIPAWHQTEEDRSPDGSSQVEVYLLDTSIQGAHREIEGRVTITDFNSVPEEDGTRFHRQASKCDSHGTHLAGVVSGRDAGVAKGTSLHSLRVLNCQGKGTVSGTLIGLEFIRKSQLIQPSGPLVVLLPLAGGYSRILNAACRHLARTGVVLVAAAGNFRDDACLYSPASAPEVITVGATNAQDQPVTLGTLGTNFGRCVDLFAPGKDIIGASSDCSTCFMSQSGTSQAAAHVAGIVARMLSREPTLTLAELRQRLIHFSTKDVINMAWFPEDQQVLTPNLVATLPPSTHETGGQLLCRTVWSAHSGPTRTATATARCAPEEELLSCSSFSRSGRRRGDWIEAIGGQQVCKALNAFGGEGVYAVARCCLVPRANCSIHNTPAARAGLETHVHCHQKDHVLTGCSFHWEVEDLSVRRQPALRSRRQPGQCVGHQAASVYASCCHAPGLECKIKEHGISGPSEQVTVACEAGWTLTGCNVLPGASLTLGAYSVDNLCVARVHDTARADRTSGEATVAAAICCRSRPSAKASWVQ
notes: biotinylated, tag not mentioned, in the hybridoma screen; also called mPCSK9-8xHIS; mPCSK9
For the molecule B7, the “IC50 (read off the curve)” value was around 0.4 nM with 16F12, anti-PCSK9 huIgG4 and around 0.6 nM in the assay with 31H4, anti-PCSK9 huIgG4.

B8: 1A12 (antibody, V domains shown)
VH: EVQLVESGGGLVQPGGSLRLSCAASGLTFSNFWMSWVRQAPGKGLEWVANIKQDGSEKYYVDSVKGRFTISRDNAKNSLYLQMNSLRAEDTAVYSCTRESNWGFAFDIWGQGTMVTVSS
VL: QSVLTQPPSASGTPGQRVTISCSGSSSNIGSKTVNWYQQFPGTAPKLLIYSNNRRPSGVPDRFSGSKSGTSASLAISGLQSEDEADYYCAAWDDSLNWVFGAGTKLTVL
notes: also called 1A12.2
Consider B8, for which the Kd in assay [13] was 0.4 nM; in assay [14] it was 1.3 nM; in assay [3], 1.1 nM; in [4], 0.56 nM; in assay [5], 1 nM; in assay [15], 1.4 nM. Moreover, the binding result is “no binding” in [8] and “binds” in [9].

B9: 9H6 (antibody, V domains shown)
VH: EVQLVESGGGLVQPGGSLRLSCAASGFTFSRYWMSWVRQAPGKGLEWVANIKHDGSEKYYVDSVKGRFTISRDNAKNSLYLQMNSLRAEDTAVYYCARESNWGFAFDVWGHGTMVTVSS
VL: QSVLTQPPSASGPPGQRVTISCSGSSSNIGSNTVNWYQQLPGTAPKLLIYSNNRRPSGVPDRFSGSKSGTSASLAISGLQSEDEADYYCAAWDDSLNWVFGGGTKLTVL
As to B9, the binding result in [1] was “no binding”; in assay [2], “binds”. The Kd in assay [3] was 1.4 nM; in assay [4], 0.7 nM; in assay [5], 1.3 nM.

B10: 27B2 (antibody, V domains shown)
VH: QVQLQESGPGLVKPSQTLSLTCTVSGGSISSGGYYWSWIRQHPGKGLEWIGYIYNSGSTYYNPSLKSRVTISVDTSKNQFSLKLSSVTAADTAVYYCAREDTAMVPYFDYWGQGTLVTVSS
VL: QSVLTQPPSVSGAPGQRVTISCTGSSSNIGAHYDVHWYQQVPGTAPKLLIYGNTYRPSGVPDRFSGSKSGTSASLAITGLQAEDEADYYCQSYDNSLSGVVFGGGTKLTVL
notes: also called 27B2.3; 27B2.3-7.4
As to B10, the koff in [7] amounted to 0.00052 s⁻¹; in assay [10], 0.00038 s⁻¹; in [11], 0.00051 s⁻¹. Also, in assay [12], the “off rate ratio pH 5.5/pH 7.4” value came to 1.4. Moreover, in assay [12], the “off rate ratio pH 6.0/pH 7.4” value is 1.3.

B11: 30A4 (antibody, V domains shown)
VH: QVQLVESGGGVVQPGRSLRLSCAASGFTFSSYGMHWVRQAPGKGLEWVAVIWYDGSDKYYADSVKGRFTISRDNSKNTLYLQMNSLRAEDTAVYYCARETGPLKLYYYGMDVWGQGTTVTVSS
VL: DIVMTQSPLSLSVTPGEPPSISCRSSQSLLHSNGYNFLNWYLQKPGQSPQLLIYLGSHRASGVPDRFSGSGSGTDFTLEISRVEAEDVGVYYCMQVLQTPFTFGPGTKVDIK
As for B11, the binding result in assay [1] is “no binding”; in assay [2], “binds”.

The values above are taken from patent publication US20130072665A1 (Amgen, published 2013).
